Measurements: patent US20250034594A1, “RNA-GUIDED GENOME RECOMBINEERING AT KILOBASE SCALE” (THE BOARD OF TRUSTEES OF THE LELAND STANFORD JUNIOR …, priority 2021, published 2025)

B1: SSAP_233: SEQ ID NO: 402; Actinoplanes italicus (protein, listed as Actinoplanes italicus)
chain: PETIANAVAQRDQSPTALVADYRNDFAAVLPSHLPPATFVRLAQGVLRRDQNLMRTAMNNPGSLMTAMLDCARLGHEPGTPAYYFVPIKGAIEGWEGYRGVIERIYRAGAVQSVRAEVVRENDFYEYEEGMPHPIHRYERFASPEQRGPLLGVWAYAVMLDGGMSRPVEMGREEVLAHRDMNPSNNRSDSPWKKWERSMWLKCAVHELEKWVPSSTEYRREIARMSAPQPAAAAAPVTYVPPQVGQRDAIEGEVAEDWPEPAEVPGGAQ
B2: SSAP_91: SEQ ID NO: 260; Proteus mirabilis (protein, listed as Proteus mirabilis)
chain: SNPPLAQADLQKTQGTEVKTKTKDQQLIHFINQPSMKTQLAAALPRHMTPDRMIRIVTTEIRKTPALANCDMQSFIGAVVQCSQLGLEPGNALGHAYLLPFGNGKAKSGQSNVQLIIGYRGMIDLARRSNQIISISARTVRQGDSFHFEYGLNENLTHVPGENEDSPITHVYAVARLKDGGVQFEVMTHNQIEKVRASSKAGQNGPWVSHWEEMAKKTVIRRLFKYLPVSIEMQKAVILDEKAEANVDQENASVFEGEFEEVGSNGN
B3: SSAP_187: SEQ ID NO: 356; Staphylococcus warneri (protein, listed as Staphylococcus warneri)
chain: ATQNDFKNQITDKKENKPQQSTNPRQVASDLLERMKPEIAKALPAHMSQDRMTRIALSAVNSNPKLSEVILNNPTSFLGALMQSAQLGLEPNTNLGHAYLIPYGNIVQLQLGYLGLLELAYRSGKYQKIMAMPVYKDDFFEYQYGTDEKLNHIPAQQQTGDAVGYYAFYKLTNGGTHFVYWSRQKMNMHQQQYSKGGNVWRNNFDAMALKTVIKDVLKYAPKSIEMGEAVTSDNNNFDFKDGGDIIDVTDYETEEN
B4: SSAP_11: SEQ ID NO: 180; Bet Lactococcus phage phiLC3 (protein, listed as Lactococcus lactis)
chain: ANEIDIYDAKNLNTATVKKFLKGGGQASDEELAMLLAISRNQNMNPFMKEVYFIKYGSAAAQIVVSRDFYRKRAFQNPNFAGIEVGVIVLNKDGVLEHNEGTFKTKDQELVGAWARVHLKNTEIPVYVAVSYDEYVQMKNGQPNSMWTNKPCTMLGKVAESQALRMAFPAEFSGTYGEEEYPEPEKEPREVNGVKEPDRAQIESFDKENYAARKIEELKEKAQPQKEFVEEIGEAIDEITAEDF
B5: SSAP_71: SEQ ID NO: 240 (protein)
chain: SNNELLAKPVEFEVNGEAVKLTGKTVKNFLVSGNGEVSDQEVVMFINLCKYQKLNPFLNEAYLVKFKSKSGPDKPAQVIVSKEAFMKRAEKHPNYEGFEAGIIVERDGQLVDIEGAIKLTNDKLVGGWARVYRSDRQKPITTRISLSEFSKGQSTWNSMPLTMIRKSAIVNAQREAFPETLGALYTEDDAKLDTTSSHDQEQVIEQEIKTKANQEVIDVEYTEESEQKSPQQEQTETTQAGPGF
B6: SSAP_69: SEQ ID NO: 238 (protein)
chain: ETIDIKQELASQAQTDSKKEVKLTKAMSIAEMIKAMMPEIKRALPSMITPERFTRIALSALNNTPELQACTPMSFISALLNAAQLGLEINSPLGHAYLIPYKNKGVLECQFQIGYLGLIALAYRNELMQTIQAQCVYENDEFLYEYGLNPKLVHRPATSDRGEPVFFYGLFKMINSGFGFCVMSKQEMDEFARTYSKGLASSFSPWKTSYNEMAKKTVIKQALKYAPIKTDFQKALSTDESIKYAISEDMTEAVNEIVSQNTEVA
B7: SSAP_316: SEQ ID NO: 485; Companilactobacillus kedongensis (protein, listed as Companilactobacillus kedongensis)
chain: MKDLARIPVKELVRSDTIKSKFNDVLGKRAPQFISSIVNIVNSNQDLKNVDQTSVISSALVAASLDLPINQSFGYMYLVPYSGKAQPQMGYKGYIQLAQRSGQYKRLNAISVSKEKVPDKMVIFIPDYRMEEAETQIDMYQDHIEDVKAGRVEPTRCGKCDYCKSTAKLGKIVSMDDLID
B8: SSAP_102: SEQ ID NO: 271; Halomonas coralii (protein, listed as Halomonas coralii)
chain: TDQATAEPQEDLGKQLQQHSQRKPMPTTIQGMLKDDRFTGQIARALPKHITPDRISRIALTEVNKTPALGKCDPMSLFGSIIQSAQLGLELGGALGHAYLVPYKDQAQFIIGYRGMIDLARRSGQMVSLQAHTVHENDDFEFEYGLDEKLRHVPARGQRGPMIAVYAVAKLTGGGHQIEVMWKEDVDAIRQQSKAGNSGPWRDHYEEMAKKTAIRRLFKYLPVSVEMQKAVSLDEQAEAGVQDNNVFDGEFSYQEPE
B9: SSAP_22: SEQ ID NO: 191 (protein)
chain: SNELMTKAVTYEVNNEEVKLSGQIVKQYLTSGQAVTDQEVTMFIQLCRYQHLNPFLNEAYLVKFNGKPAQIITSKEAFMKRAESNPNYAGLKAGCIVERNGELIYTEGAFTLKTDNILGAWADVIRKDRREPTHVEISMDEFSKSQATWKSMPATMIRKTAIVNALREAFPQDLGALYTEDDKNPNEATQTTYKQEPEVNTTKTADVLAKKFSGAPQIKSVENVQESEEESNNASNHGEATEPVNNVEEPTATAEVEQGQLL
B10: SSAP_178: SEQ ID NO: 347; Streptomyces sp. MZ04 (protein, listed as Streptomyces sp.)
chain: STNLAARVEARRQNPTTKQPARRGKAAQQPTLVQFVQSMRGEIARALPSHVASPERIARIALTELRRVDHLAECTQESFGGALMTCAALGLEPGGVGGEAYLLPFWNKKVRAYEVTLVIGYQGMVRLFWQHPAAAGLAAHTVHEGDEFDFEYGLEPFLRHKPARTGRGKPTDYYAVAKMANGGSAFVVMNVEDIEAIRHRSKARDAGPWSTDYGLRRHGAQDLHSAVVQVAAEVC

tested on: gene editing with Cas9; test: Screen of 322 new SSAP proteins, gene editing activity with Cas9 (Table 5); assay type: cell-based; design: Cas9 with SSAP activity: scale not given here; details: not given
How it was run: (§1)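 Read-out is gene editing activity. Candidates come from sequence data mining, are made synthetically, and are tested alongside either nuclease-active Cas9 or catalytically dead dCas9.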

Compared with B1, B2 is higher in “Cas9 with SSAP activity” value: −2.628 for the first, 0.635 for the second.

First: B3
Second: B4
The “Cas9 with SSAP activity” value of the first is higher: 0.257 for the first, −1.791 for the second.

Compared with B5, B6 is lower in “Cas9 with SSAP activity” value: −1.797 for the first, −5.286 for the second.

Compared with B7, B8 is lower in “Cas9 with SSAP activity” value: 0.465 for the first, −0.118 for the second.

Compared with B9, B10 is lower in “Cas9 with SSAP activity” value: 1.789 for the first, −1.057 for the second.

same assay, conditions: normalized

First: B1
Second: B2
The “Cas9 with SSAP activity (normalized)” value of the first is lower: −0.424 for the first, 0.826 for the second.

Compared with B3, B4 is lower in “Cas9 with SSAP activity (normalized)” value: 0.239 for the first, −0.870 for the second.

Compared with B5, B6 is higher in “Cas9 with SSAP activity (normalized)” value: −2.283 for the first, −0.810 for the second.

Compared with B7, B8 is lower in “Cas9 with SSAP activity (normalized)” value: 0.410 for the first, −0.065 for the second.

Going from B9 to B10, the “Cas9 with SSAP activity (normalized)” value falls from 4.337 to −0.929.

tested on: gene editing with dCas9; test: Screen of 322 new SSAP proteins, gene editing activity with dCas9 (Table 5); assay type: cell-based; design: dCas9 with SSAP activity: scale not given here; details: not given
How it was run: as §1

Compared with B1, B2 is lower in “dCas9 with SSAP activity” value: −0.220 for the first, −0.407 for the second.

Going from B3 to B4, the “dCas9 with SSAP activity” value falls from −0.498 to −0.655.

Compared with B5, B6 is lower in “dCas9 with SSAP activity” value: −0.701 for the first, −0.742 for the second.

First: B7
Second: B8
The “dCas9 with SSAP activity” value of the first is higher: −0.764 for the first, −0.784 for the second.

Going from B9 to B10, the “dCas9 with SSAP activity” value falls from −0.792 to −0.807.

same assay, conditions: normalized

Compared with B1, B2 is lower in “dCas9 with SSAP activity (normalized)” value: −0.063 for the first, −0.170 for the second.

Going from B3 to B4, the “dCas9 with SSAP activity (normalized)” value falls from −0.164 to −0.866.

Compared with B5, B6 is higher in “dCas9 with SSAP activity (normalized)” value: −0.555 for the first, −0.240 for the second.

First: B7
Second: B8
The “dCas9 with SSAP activity (normalized)” value of the first is higher: −0.279 for the first, −0.325 for the second.

Compared with B9, B10 is higher in “dCas9 with SSAP activity (normalized)” value: −0.867 for the first, −0.626 for the second.

tested on: gene editing with Cas9 and dCas9; test: Screen of 322 new SSAP proteins, activity across all experiments (Cas9 and dCas9, Table 5); assay type: cell-based; design: scale not given here; details: not given
How it was run: as §1

First: B1
Second: B2
The “Activity across all experiments” value of the first is lower: −1.424 for the first, 0.114 for the second.

Compared with B3, B4 is lower in “Activity across all experiments” value: −0.120 for the first, −1.223 for the second.

First: B5
Second: B6
The “Activity across all experiments” value of the first is higher: −1.249 for the first, −3.014 for the second.

Going from B7 to B8, the “Activity across all experiments” value falls from −0.150 to −0.451.

Going from B9 to B10, the “Activity across all experiments” value falls from 0.498 to −0.932.
